Test results: FireProtDB (doi:10.1021/bi980431i)

Details: Homo sapiens; pH 2.7; Thermal; DSC; glycine 0.05 M; reversible: yes; whole UniProt chain shown

B1: Lysozyme C wild type, P61626 (protein)
chain: MKALIVLGLVLLSVTVQGKVFERCELARTLKRLGMDGYRGISLANWMCLAKWESGYNTRATNYNAGDRSTDYGIFQINSRYWCNDGKTPGAVNACHLSCSALLQDNIADAVACAKRVVRDPQGIRAWVAWRNRCQNRDVRQYVQGCGV
In the case of B1, the Tm is reported as 64.9 °C, the “heat capacity change of unfolding” value is reported as 1.58 kcal/mol/K and the “unfolding enthalpy (calorimetric)” value is reported as 114 kcal/mol. The “unfolding enthalpy (van 't Hoff)” value was 120 kcal/mol.
